From paper PMC7747717 (Nature Communications, 2020)
One block for each binder: values may come before it.

Key:
Experiment in all cases: cryo-EM structure; endogenous human Pol III purified from HeLa POLR1C-GFP cells, not cross-linked, apo, 4.0 Å
Settings in all cases: both partners purified
[1] = molecular target: T1, RPC8, stalk subunit of purified human Pol III (human (endogenous in HeLa), UniProt Q9Y535 1-204)
T1 construct: RPC8, stalk subunit of RNA polymerase III, human, endogenous; source: endogenous, HeLa, purified within Pol III
T1 sequence (looked up): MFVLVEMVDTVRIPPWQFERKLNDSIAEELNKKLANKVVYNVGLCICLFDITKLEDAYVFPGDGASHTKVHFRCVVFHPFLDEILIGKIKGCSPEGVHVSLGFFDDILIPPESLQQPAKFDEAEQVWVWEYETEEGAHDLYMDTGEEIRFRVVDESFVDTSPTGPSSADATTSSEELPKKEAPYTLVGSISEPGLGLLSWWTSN

[2] = molecular target: T2, RPC5, subunit of purified human Pol III (human (endogenous in HeLa), UniProt Q9NVU0 1-708)
T2 construct: RPC5, subunit of the TFIIF-like RPC4/5 heterodimer of RNA polymerase III, human, endogenous; the C-terminal extension (RPC5EXT) was not visible in the EM map; also called POLR3E; source: endogenous, HeLa, purified within Pol III
T2 sequence (looked up): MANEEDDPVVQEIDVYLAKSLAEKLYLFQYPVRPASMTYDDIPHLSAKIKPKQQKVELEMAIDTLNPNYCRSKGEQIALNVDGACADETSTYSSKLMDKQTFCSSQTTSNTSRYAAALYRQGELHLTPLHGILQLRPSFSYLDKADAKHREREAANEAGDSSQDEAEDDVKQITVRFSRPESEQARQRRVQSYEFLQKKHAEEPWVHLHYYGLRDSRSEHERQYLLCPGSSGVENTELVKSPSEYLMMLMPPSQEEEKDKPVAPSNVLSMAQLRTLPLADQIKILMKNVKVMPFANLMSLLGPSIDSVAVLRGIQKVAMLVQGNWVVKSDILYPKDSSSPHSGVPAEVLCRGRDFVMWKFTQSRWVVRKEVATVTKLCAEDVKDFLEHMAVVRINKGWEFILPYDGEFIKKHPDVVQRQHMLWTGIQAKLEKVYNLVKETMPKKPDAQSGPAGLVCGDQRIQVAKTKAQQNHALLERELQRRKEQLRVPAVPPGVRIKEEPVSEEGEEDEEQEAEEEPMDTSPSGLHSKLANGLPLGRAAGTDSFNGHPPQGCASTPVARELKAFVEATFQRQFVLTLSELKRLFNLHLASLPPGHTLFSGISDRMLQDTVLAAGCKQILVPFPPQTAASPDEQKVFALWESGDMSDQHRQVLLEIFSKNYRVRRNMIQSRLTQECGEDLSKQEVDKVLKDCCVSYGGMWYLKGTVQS

[3] = molecular target: RPABC1, subunit of purified human Pol III (human (endogenous in HeLa), UniProt P19388 1-210)

binding result [1]: binds
B1: RPC9, stalk subunit of purified human Pol III (natural protein)
chain: not shown
notes: RPC9, stalk subunit of RNA polymerase III, human, endogenous; source: endogenous, HeLa, purified within Pol III

binding result [2]: binds
B2: RPC4, subunit of purified human Pol III (natural protein, human (endogenous in HeLa), UniProt P05423 1-398, looked up)
chain: MSEGNAAGEPSTPGGPRPLLTGARGLIGRRPAPPLTPGRLPSIRSRDLTLGGVKKKTFTPNIISRKIKEEPKEEVTVKKEKRERDRDRQREGHGRGRGRPEVIQSHSIFEQGPAEMMKKKGNWDKTVDVSDMGPSHIINIKKEKRETDEETKQILRMLEKDDFLDDPGLRNDTRNMPVQLPLAHSGWLFKEENDEPDVKPWLAGPKEEDMEVDIPAVKVKEEPRDEEEEAKMKAPPKAARKTPGLPKDVSVAELLRELSLTKEEELLFLQLPDTLPGQPPTQDIKPIKTEVQGEDGQVVLIKQEKDREAKLAENACTLADLTEGQVGKLLIRKSGRVQLLLGKVTLDVTMGTACSFLQELVSVGLGDSRTGEMTVLGHVKHKLVCSPDFESLLDHKHR
notes: RPC4, subunit of the TFIIF-like RPC4/5 heterodimer of RNA polymerase III, human, endogenous; also called POLR3D; source: endogenous, HeLa, purified within Pol III

binding result [3]: binds
B3: RPC1, largest subunit of purified human Pol III (natural protein)
chain: MVKEQFRETDVAKKISHICFGMKSPEEMRQQAHIQVVSKNLYSQDNQHAPLLYGVLDHRMGTSEKDRPCETCGKNLADCLGHYGYIDLELPCFHVGYFRAVIGILQMICKTCCHIMLSQEEKKQFLDYLKRPGLTYLQKRGLKKKISDKCRKKNICHHCGAFNGTVKKCGLLKIIHEKYKTNKKVVDPIVSNFLQSFETAIEHNKEVEPLLGRAQENLNPLVVLNLFKRIPAEDVPLLLMNPEAGKPSDLILTRLLVPPLCIRPSVVSDLKSGTNEDDLTMKLTEIIFLNDVIKKHRISGAKTQMIMEDWDFLQLQCALYINSELSGIPLNMAPKKWTRGFVQRLKGKQGRFRGNLSGKRVDFSGRTVISPDPNLRIDEVAVPVHVAKILTFPEKVNKANINFLRKLVQNGPEVHPGANFIQQRHTQMKRFLKYGNREKMAQELKYGDIVERHLIDGDVVLFNRQPSLHKLSIMAHLARVKPHRTFRFNECVCTPYNADFDGDEMNLHLPQTEEAKAEALVLMGTKANLVTPRNGEPLIAAIQDFLTGAYLLTLKDTFFDRAKACQIIASILVGKDEKIKVRLPPPTILKPVTLWTGKQIFSVILRPSDDNPVRANLRTKGKQYCGKGEDLCANDSYVTIQNSELMSGSMDKGTLGSGSKNNIFYILLRDWGQNEAADAMSRLARLAPVYLSNRGFSIGIGDVTPGQGLLKAKYELLNAGYKKCDEYIEALNTGKLQQQPGCTAEETLEALILKELSVIRDHAGSACLRELDKSNSPLTMALCGSKGSFINISQMIACVGQQAISGSRVPDGFENRSLPHFEKHSKLPAAKGFVANSFYSGLTPTEFFFHTMAGREGLVDTAVKTAETGYMQRRLVKSLEDLCSQYDLTVRSSTGDIIQFIYGGDGLDPAAMEGKDEPLEFKRVLDNIKAVFPCPSEPALSKNELILTTESIMKKSEFLCCQDSFLQEIKKFIKGVSEKIKKTRDKYGINDNGTTEPRVLYQLDRITPTQVEKFLETCRDKYMRAQMEPGSAVGALCAQSIGEPGTQMTLKTFHFAGVASMNITLGVPRIKEIINASKAISTPIITAQLDKDDDADYARLVKGRIEKTLLGEISEYIEEVFLPDDCFILVKLSLERIRLLRLEVNAETVRYSICTSKLRVKPGDVAVHGEAVVCVTPRENSKSSMYYVLQFLKEDLPKVVVQGIPEVSRAVIHIDEQSGKEKYKLLVEGDNLRAVMATHGVKGTRTTSNNTYEVEKTLGIEAARTTIINEIQYTMVNHGMSIDRRHVMLLSDLMTYKGEVLGITRFGLAKMKESVLMLASFEKTADHLFDAAYFGQKDSVCGVSECIIMGIPMNIGTGLFKLLHKADRDPNPPKRPLIFDTNEFHIPLVT
notes: RPC1, largest subunit of RNA polymerase III, human, endogenous; also called POLR3A; source: endogenous, HeLa, purified within Pol III
